Results on two substances are retold here after US20160199455.

The data set concerns T1, rBDD FVIII (recombinant B-domain deleted FVIII, REFACTO).
T1 sequence: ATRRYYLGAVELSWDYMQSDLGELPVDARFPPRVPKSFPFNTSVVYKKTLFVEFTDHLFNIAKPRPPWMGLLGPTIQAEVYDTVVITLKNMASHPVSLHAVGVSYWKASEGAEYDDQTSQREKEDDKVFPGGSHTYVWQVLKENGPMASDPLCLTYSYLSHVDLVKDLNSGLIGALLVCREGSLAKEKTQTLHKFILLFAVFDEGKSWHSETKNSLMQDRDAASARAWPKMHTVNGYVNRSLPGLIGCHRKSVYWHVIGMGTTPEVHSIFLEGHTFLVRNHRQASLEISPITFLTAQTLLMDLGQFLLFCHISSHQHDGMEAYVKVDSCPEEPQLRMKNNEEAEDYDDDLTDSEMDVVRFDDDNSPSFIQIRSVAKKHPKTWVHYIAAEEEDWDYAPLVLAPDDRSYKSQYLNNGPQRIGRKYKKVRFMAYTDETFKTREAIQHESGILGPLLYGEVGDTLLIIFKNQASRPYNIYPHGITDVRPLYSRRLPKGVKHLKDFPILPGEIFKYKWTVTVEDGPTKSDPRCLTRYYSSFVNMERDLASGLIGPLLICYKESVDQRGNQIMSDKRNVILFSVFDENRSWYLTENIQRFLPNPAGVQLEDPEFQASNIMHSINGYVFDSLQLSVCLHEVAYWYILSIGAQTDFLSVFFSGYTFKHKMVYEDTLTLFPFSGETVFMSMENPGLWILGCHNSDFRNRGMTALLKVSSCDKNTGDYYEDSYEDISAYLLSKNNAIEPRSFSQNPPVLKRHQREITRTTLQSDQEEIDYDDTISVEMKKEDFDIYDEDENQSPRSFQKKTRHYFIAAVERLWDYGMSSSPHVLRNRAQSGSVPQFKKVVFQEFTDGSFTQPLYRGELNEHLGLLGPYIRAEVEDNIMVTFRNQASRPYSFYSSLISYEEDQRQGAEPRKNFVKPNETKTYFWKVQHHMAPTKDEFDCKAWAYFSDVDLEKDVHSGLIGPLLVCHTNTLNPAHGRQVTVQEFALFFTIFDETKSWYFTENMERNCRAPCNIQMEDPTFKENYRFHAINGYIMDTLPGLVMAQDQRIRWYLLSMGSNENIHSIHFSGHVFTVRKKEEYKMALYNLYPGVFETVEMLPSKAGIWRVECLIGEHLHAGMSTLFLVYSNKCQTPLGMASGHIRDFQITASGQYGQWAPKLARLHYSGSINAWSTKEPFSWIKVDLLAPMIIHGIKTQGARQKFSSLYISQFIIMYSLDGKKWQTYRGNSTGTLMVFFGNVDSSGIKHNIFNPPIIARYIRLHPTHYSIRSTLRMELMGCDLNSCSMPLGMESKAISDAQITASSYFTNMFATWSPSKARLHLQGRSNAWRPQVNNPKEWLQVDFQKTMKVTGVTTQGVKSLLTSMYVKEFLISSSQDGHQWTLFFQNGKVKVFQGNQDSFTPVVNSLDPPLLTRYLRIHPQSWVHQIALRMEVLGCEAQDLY

For Factor X (FX), the Km (activation of Factor X by the Xase complex) came out at 0.051 µM and the Vmax (activation of Factor X by the Xase complex) is 73.5 nM/min. With activated Factor IX (FIXa), the Vmax (FXa generation, varying FIXa) is 4 nM/min.
